Test results from the nanobody polyreactivity screen of Harvey et al. (2022).

Experiment: yeast display, Sf9 membrane polyspecificity reagent, FACS + sequencing; frameworks hold sequencing errors
Procedure, shortened: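 Galactose-induced (36–48 hours) yeast carrying a synthetic nanobody display library were exposed to 10% biotinylated, detergent-solubilized Sf9 membrane reagent at 4 °C for 1 hour. FACS followed streptavidin microbead enrichment, using low and high (top ~1%) gates for expression (anti-HA) and reagent binding (streptavidin). Colony PCR, MiSeq 2 × 250 sequencing and CDR-length filtering followed. Labels for polyreactivity reflect the gate of origin.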

| Sequence | polyreactivity (PSR sort gate) |
| --- | --- |
| QVQLVESGGGLVQAGGSLRLNCAASGITFSANAMGWYRQATGKERELVASNRSSGGSTYYADSVKGRFTISRDNEKKTVYLQMNSLKPEDTAVYSRNARLGPLYVYRQYDSWGQGTQVTVSS | low polyreactivity |
| QVQLVESGGGLVQAGGSLRLSCAASGIIFRYYAMGWYRQAPGKERELVATISWRGGSTYYADSVKGRFTISRDNAKNTVYLQMNSLKPEDTAVYYCAAAISYSARGGKGLGGYWGQGTQVTVSS | high polyreactivity |
| QVQLVESGGGLVQAGGSLRVSCAASGSIFYSYGMGWYRQAPVKERELVAAITSSGGGTYYADSVKGRFTISRDNAKNSVYLQMNSLKPEDTAVYYCAAHDRNYNYYPTFYYWGQGTQVSVSS | low polyreactivity |
| QVQLVESGGGLVQAGGSLRLSCAASGSTFYWYTMGWYRQAPGKERELVATINYSGGSTYYADSVKGRFTISRDNAKNTVYLQMNSLKPEDTAVYYCNKQVYVGWGSDYWGQGTQVTVSS | low polyreactivity |
| QVQLVESGGVLVQAGGSLRLSCAASGIIFGRDTMGWYRQAPGKERELVAAITSSGITYYADSVKGRFTFSRDNAKNCVYLQMNSLKPEDTAVYYCIADYSIPGYYWPYDYWGQCTQVTVSS | low polyreactivity |
| QVQLVESGGGLVQAGGSLSLSCAASARTFYGSAKGWYRQAPGKERELVAAINYSGGRTYYADSVKGRFTISRDNAKNTVYLQMNSLKAEDTAGYYCAAPRASGYYWGQGTQVTVSS | high polyreactivity |
| QFQLVESGGGLVQAGGSLRLSCAASGSIFISNAMGWYRQAPGKERDLVAAISWTSGSTYYADSVKGRFTISRDNAKNTVYLQMNSLKPVDTAFYYCAALGGAALDWGVVEVGYWGKGTQVTVSS | low polyreactivity |
| QVQLVESGGGLVQAGGSLRLSCAASGFTFYTNVMGWYRQAPGKERELVAAINSGGSTNYADSVKGRFTISRDNAKNTVYLQRNSLKPEDTAVYYCNKRGTEIGYDYWGQGTQVTVLS | low polyreactivity |
| QVQLVESGGGLVQAGGSLRLSCAASGRTFYYNAMGWYRQAPGKERELVARITSSGGSTYYADSVKGRFTISRDNAKNTVYLQMNSLKPEDTAVYYCAAGRSRYLWFGRDFDYWGQGTQVTVSS | low polyreactivity |
| QVQLVETGGGLVQAGGSLRISCAPSGSIFQRYAMGWYTQAPGKERELVAAITGSGGSTYYADSVMWRFTISRDNAKKTVYLQMNILKPEDSAVYYCAKRYPSRQYTLYNYWGLGTQVTVSS | high polyreactivity |
| QVQLVESGGGLVQAGGSLRLSCAASGSIIFVNAMGWYRQAPGKERELVADISSGGSTNYADSVKGRFTISRDNAKNTVYLLMNSLKPEDTAVYYCNTDEPPIYERFPYDYWGQGTQVNVSS | low polyreactivity |
| QVQLVESGGGLVKAGGPLRLSCAASGSIFYYNPMGWYRQAPGTERELVAAITSGDSTNYADSVKGRFTISRDNAKNSVYLQLNSLKPEDTAVYYCAADYLAALTYYRTYDYWGEGTQVTVSS | low polyreactivity |
| QVQLVESGGGLVQAGGSLRLSCAASGRIFTSYVMGWYRQAPGKERELVAAITSSGGSTYYADSVKGRFTISRDNAKNTVYLQMNSLKPEDTAVYYCAAATRGSGRRYDYWGQGTQVTVSS | high polyreactivity |
| QVQLVESGGGLVQAGGSLRLSCAASGYTFSFNAMGWYRQAPGKEREFVAAIDFGGAGTYYADSVKGRFTISRDTAKKTVYLQMNSLKPEDTAVYYCNARDGVTTEFDYWGQGTQVTVAS | low polyreactivity |
| QVQLVESGGGLVQAGGSLRLSCAASGRIFHVYVMGWYRPAPGKERELVAAITWRGGRTYYADSVKGRFTISRDNAKNTVYLQMNSLKPEDTAVYYCKAVAYWYDYQYDYWGQGTQVTVSS | high polyreactivity |
| QVQLVESGGGLVQAGGSLRLSCAASGRIFYSYAMGWYRQAPGKERELVAAIDESDGSTYYADSVKGRFTISRDNAKNTVYLQMNSLKPEDTAVYYCAAGYLDVLWLLDLLQLYGYWGQGTQVTVSS | low polyreactivity |
| QVQLVESGGGLVQAGGSLRLICAASGSTFRNYAMGWYRQAPGKDRELVAAISRGDGTYYADSVKWRFTISRDNAKNTVYLLMNSLKPEYSAVYYCAAAYRGRQNPMGFWGQGTQVTVSS | high polyreactivity |
| QVQLVESGGGLVQAGGSLRLSCAASGSIFRWYAMGWYRQAPGKERELVAAISTSGGNTYYADSVKGRFTISRDIAKITVYLQMKSLKPEDTAVYYCNALWYRSLSYRYDYWGQGTQVTVSS | high polyreactivity |
| QVQLVESGGGLVQAGGSLRLSCAASGRIFNHNDMGWYRQAPGKERELVAAIDGSDSSTYYADSVKGRFTISRDNAKNTVYLQMNSLKTEDTAVYYCNADTNWLYTTGKYDYWGQGTQVTVSS | low polyreactivity |
| QVQLVESGGGLVQAGGSLRLSCAASGLNFYDNVMGWSRPAPGKEREFVAAITSIGGSTYYADSVKGRFTISRDNAMNTVYLQMISLKPEDTAVYYCIGKSKYYSPNYDYWGQGTQVTVSS | low polyreactivity |
| QVQLVESGGGLVQAGGSLRLSCAASGRTFAYHTMGWYRQAPGKERELVARINSGTSTYYADSVKGRFTISRDNEKNTVYLQMNSLKPEDTAVYYCAARGSESIRWYVGGRYGYWGQGTQVTVSS | low polyreactivity |
| QVQLVESGGGLVQAGGSLRLSCAASGSISYQNAMGWYRQAPGKERELVAAISGDGDSTYYADSVKGRFTISRDNAKNTVYLQMNSLKPEDTAVYYCAAEPNVYFSVFVLFPYDYWGQGTQVTVSS | low polyreactivity |

| Sequence | polyreactivity (PSR sort gate) |
| --- | --- |
| QVQLVESGGGLVQAGGSLRLSCAASGSTFVIYGMGLYRQEPGKESDIVADITWIGGSTYYADSVKGRFTISRDNAKNTVYLQMKSLKPEDTAVYYCAADAAYLYLYNWYDTEDYYWGQGTLVTVSS | low polyreactivity |
| QVQLVESGGGLVQAGGSLRLSCAASGSTFKAYAMGWYRQAPGKERELVAAITKSGGRTYYADSVKGRFTISRDNAKNTVYLQMISLKPEDTAVYYCAAVFRPDSSAYRYYYWGQGTQVTVSS | high polyreactivity |
| QVQLLESAGGLVQAGGSLRLICAASGSTFYNYAMGWYRQAPGKERELVDSITSSGVSTYYADSVKGRFTISRDIAKNTVYLQMNSLKPDDTAVYYCNADDGYGQVHSISTYEMDYWGQGTQVTVSS | low polyreactivity |
| QVQLVESGGGLVQAGGSLRLSCAASGRTFYPNAMGWYRQAPGKERELVAAITWRSGSTYYADSVKGRFTISRDNAKNTVYLPMNSLKPEDTAVYYCNADSDYPYYPGKFDYWGQGTQVTVSS | low polyreactivity |
| QVQLVESGGGLVQAGGSLRLSCAASGINFRYYAMGWYRQAPGKERELVARISTRGGSTYYADSVKGRFTISRDNAKNTVYLQMNSLKPEDTAVYYCAAVNGLYYHKYGYYWGQGTQVTVSS | high polyreactivity |
| QVQLVESGGGLVQAGGSLRLSCAASGSTFAGNAMGWYRQAPGTDRELVAAIDSSTGSTYYADSVKGRYTISRDNAKNTVYLHMNSLKPEDTAVYYCNKTSFLVTLDYWGQGTQVTVSS | low polyreactivity |
| QVQLVESGGGLVQAGGSLRLSCAASGSTLFAYAMGWYRQAPGKERELVAAITSGASTNCADSVKGRFTISRDNAKNTVYLQMNSLKPEDTAVYYCAKDVSGTNPDYDYWGQGTQVTVSS | low polyreactivity |
| QVQLVESGGGLVQAGGSLRLSCAASGSTLATYTMGWYRQAPGKERELVAAISFGGSTYYADSVKGRFTISRDNAKNTVYLQMNSLKPEDTAVYYCAVYGDSYWGAYYYSDGYWGQGSQVTVSS | low polyreactivity |
| QVQLVESGGGLVQAGGSLRLSCAASGRTTWIYAMGWYRQAPGKERELVAVISKRGGNTYYADSVKGRFTISRDNAKNTVYLQMNSLKPADTAVYYCAAAGVYGSYDYWGQGTQVTVSS | high polyreactivity |
| QVQLVESGGGLVQAGGSLRLSCAASGFIFNKYAMGWYRQAPGKERELVATIRRDGSTNYADSVKGRFTISRDNAKNTVYLQMNSQKPEDTAVYYCAVRPYYWSRDYYWGQGTQVTVSS | high polyreactivity |
| QVQLVESCGGLVQAGGSLRLSCAASGSTFSLYGMGWYRQAPAKERELVATITYSGGRTYYADSVKGRFTISLDNAKNTVYLQLNSLKPEDTAVYYCAARLAPLYRTYYYWGQGTQVTVSS | low polyreactivity |
| QVQLVESGGGLVQAGGSLRLSCAASGLTFYRNAMGWYRQAPGKEREFVAAITSTDGSTYYADSVKGRFTISRDNAKNTVYLQMNSLKPEDTAVYYCAARRRRWSGYWGQGTQVTVSS | high polyreactivity |
| QVQVVESGGGLDNAGGSLGLSCAASGSIFYYNAMGWYRQAPGKERELVAAISSSGGSTYYADSVKGRFTISRDNAKNTVYLQMNSLKPEDTAVYYCAAKLRHWAHHTKYDYWGQGTQVTVSS | low polyreactivity |
| QVQHVDSGGGLVQAGGSLRLSCAASGIYVVYAMGWYRQAPGKERELVAAISSGVSTTYADSVKGRFTISRDNAKNTVYLQMNSLKPEDTAVYYCNTLWGHHYIVPYRTREFYYWGQGTQVTVSS | low polyreactivity |
| QVQLVESGGGLLQAGGSLRLSCAASGSIFRRNAMGWYRQAPGTERELVACISGGGSTYYADSVKGRFTKSRDNAKNNVYLQLNSLNPEDTAVYYCATDKHYRWAVFDYWGQGTQVTVSS | low polyreactivity |
| QVQLVESGGGLVQAGGSLRLSCAASGSIFYRNRMGWYRQAPGKERELVAAIRYSGDNTYYADSVKGRFTISRDNAKNTVYLQMNSLKPEDTAVYYCAADFPDYEYWGQGTQVTVSS | high polyreactivity |
| QVQLVESGGGLVQAGGSLRLSCAASGRIFASYAMGWYRQAPGKERELVAAISLRGGSTYYADSVKGRFTISRDNAKNTVYLQMNSLKPEDTAVYYCAAYHPHGFDYYRYYYWGQGTQVTVSS | high polyreactivity |
| QVQLVESGGGLVQAGGSLRLSCAASGRTFNWYAMGWYRQAPGKERELVAAISYSGGGTYYADSVKGRFTISRDNAKNTVYLQMNSLKPEDTAVYYCAAETYYAPYVYWGQGTQVTVSS | high polyreactivity |
| QVQLVESGGALVQAGGRLRLSCAASVYIQHKYAMGRYRQAPGKERDLVATISGGGGSTYYADSVKGRFTISRDNAKNTVYLQMNSLKPEDTSVYYCAKEYPWLPRSYEYWGQGTQVTVSS | low polyreactivity |
| QVQLVESGGGLGQAGGSLRLSCAASGSTFYKYAMGWYRQAPGKERELVASITWSGTSTYYADSVKGRFTISRDNQKNTVFLQMNSLKAEDTAVYYCAAPKLDDYDYWGQGTQVTVSS | low polyreactivity |
| QVQLVESGGGLVQAGGSLRLSCAAYGRTFWSYAMGWYRQAPGKERELVADISLDDGTTYYADSVKGRFTISRDNAKNTVYLHMNSLKPEDTAVYYCAAERDQGDDGYGPDYGYWGQGTQVTVSS | high polyreactivity |
